Assay results published in US20160264666A1 (INSERM INSTITUT NATIONAL DE LA SANTE ET DE LA RECHERCHE …, published 2016).

T1: ICOS (Inductible T cell costimulator) (UniProt Q9Y6W8 21-199, limits assumed)
T1 construct: whole, on cells; also called ICOS on JICOS.1 cells
T1 sequence (looked up): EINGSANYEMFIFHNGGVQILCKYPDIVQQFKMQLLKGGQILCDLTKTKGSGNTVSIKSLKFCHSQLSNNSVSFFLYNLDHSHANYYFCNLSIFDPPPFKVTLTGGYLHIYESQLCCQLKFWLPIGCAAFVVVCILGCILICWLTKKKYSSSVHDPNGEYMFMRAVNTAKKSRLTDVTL


How the values were obtained:
[1] = target: T1, ICOS (Inductible T cell costimulator); assay: flow cytometry on JICOS.1 cells, inhibition of ICOS L-Fc binding to ICOS, revealed with GAH-PE; printed as [ID] 50
Source text: (§1) They used a gradient of concentration of anti-ICOS mAbs and theyr reveled the fixation to ICOS L Fc thanks to a probe coupled to a fluorochrom (GAH-PE: Goat anti-human-PE). The analysis was made by flow cytometry.

[2] = target: T1, ICOS (Inductible T cell costimulator); assay: flow cytometry on JICOS.1 cells (ICOS transfectants), mAb titration revealed with GAM-PE; printed as [ED] 50
Protocol: (§2) The inventors developed 5 anti-ICOS Abs. Their isotype was assayed by ELISA. For obtaining an indirect analysis of their affinity for their receptor, mAbs were tested using stable transfectants expressing ICOS. JICOS.1 cells were in the presence of an increasing range of anti-ICOS mAbs labeled with a probe coupled to a fluorochrome (PE-GAM: Goat anti mouse-PE) and the analysis was made thanks to cytometry flow.

[3] = target: T1, ICOS (Inductible T cell costimulator); assay: flow cytometry on JICOS.1 cells, mAb titration revealed with GAM-PE; printed as ED 50
Protocol: as §2

[4] = target: T1, ICOS (Inductible T cell costimulator); assay: flow cytometry on JICOS.1 cells, inhibition of ICOS L-Fc binding to ICOS; printed as ID 50
Source text: as §1

IC50 [1] [mg/L] | EC50 [2] [mg/L] | EC50 [3] [mg/L] | IC50 [4] [mg/L] | Binder
17 | 1.6 | – | – | ICOS 88-2 (antibody, V domains shown, Mouse hybridoma monoclonal antibody; isotype printed as IgG1-L; Agonist of ICOS; also called anti-ICOS mAb 88-2) VH: QVQLQQPGAELVRPGASVKLSCKASGYSFTSYWINWVKQRPGQGLEWIGNIYPSDSYTNYNQMFKDKATLTVDKSSNTAYMQLTSPTSEDSAVYYCTRWNLSYYFDNNYYLDYWGQGTTLTVSS VL: DIVMTQAAPSVPVTPGESVSISCRSSKSLLHSNGNTYLYWFLQRPGQSPQLLIYRMSNLASGVPDRFSGSGSGTAFTLRISRVEAEDVGVYYCMQHLEYPWTFGGGTKLEIK
0.29 | 0.06 | < 0.5 | < 1000 | ICOS 314-8 (antibody, V domains shown, Mouse hybridoma monoclonal antibody; isotype printed as IgG1-K; Antagonist of ICOS) VH: QVQLQQPGTELMKPGASVKLSCKASGYTFTTYWMHWVKQRPGQGLEWIGEIDPSDSYVNYNQNFKGKATLTVDKSSSTAYIQLSSLTSEDSAVYFCARSPDYYGTSLAWFDYWGQGTLVTVST VL: DIVMTQAAPSVPVTPGESVSISCRSSKSPLHSNGNIYLYWFLQRPGQSPQLLIYRMSNLASGVPDRFSGSGSGTTFTLKISRVEAEDVGVYYCMQHLEYPYTFGGGTKLEIK
